Experiment: yeast display, Sf9 membrane polyspecificity reagent, FACS + sequencing; frameworks hold sequencing errors
How it was run: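 Synthetic nanobody libraries on Saccharomyces cerevisiae BJ5465 were galactose-induced for 36–48 hours, stained 1 hour at 4 °C with 10% biotinylated, detergent-solubilized Sf9 membrane reagent and enriched on streptavidin microbeads. FACS then separated cells into low and high (top ~1%) gates by anti-HA (expression) and streptavidin (reagent binding) fluorescence. Genes were colony-PCR amplified, MiSeq 2 × 250 sequenced and CDR-length filtered. A clone's polyreactivity label is that of its gate of origin.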

| Sequence | polyreactivity (PSR sort gate) |
| --- | --- |
| QVQLVESGGGLVQAGGSLRLSCAASGSIFYVNAMGWSRQAPGKERELVAAITSGVSTNYADSVKGSFTISRDNAKNTVYLQMNSLKREDTAVYYSAADYTYKQLHWVIEDYWGQGTQVTVSS | low polyreactivity |
| QVQLVESGGGLVQAGGSLRLSCAASGSIFYVNAMGWYRQAPGKERELVASITASGGTTYYADSVKGRFTISRDNAKNTVYLQMNSLKPEDTAVYYCAATFIQVVVNVQLYDYDYWGQGTQVTVSS | low polyreactivity |
| QVQLVESGGGLVQAGGSLRLSCAASGSIFYVYAMGWYRQAPGKEREFVASIRTSGSSTYADSVKGRFTISRDNAKNTVYLQMNSLKPEDTAVYYCAAGSITVFWKRTGYRWRGYDYWGQGTQVTVSS | low polyreactivity |
| QVQLVESGGGLVQAGGSLRLSCAASGSIFYVYAMGWYRQAPGKERELVAAITSSGTTNYADSVKGRFTISRDNAKNTVYLQMNSLKPEDTAVYYCAADPDSGQVPFDYWGQGTQVTVSS | low polyreactivity |
| QVQLVESGGGLVQAGGSLRLSCAASGSIFYVYAMGWYRQAPGKERELVATISSSAGSTYYADSVKGRFTISRDNAKNTVYLQMNSLKPEDTAVYYCAAKVRYSLRKYYYWGQGTQVTVSS | high polyreactivity |
| QVQLVESGGGLVQAGGSLRLSCAASGSIFYWNAMGWYRQAPGKERELVAAISSSGSSTYYADSVKGRFTISRDNAKNTVYLQMNSLKPEDTAVYYCAADNYNSGGTRHMYYWGQGTQVTVSS | high polyreactivity |
| QVQLVESGGGLVQAGGSLRLSCAASGSIFYWNAMGWYRQAPGKERELVATITITTSTNYADSVKGRFTISRDNAKNTVYLQMNSLKPEDTAVYYCNAGAPYRYLDEYNYWGQGTQVTVSS | low polyreactivity |
| QVQLVESGGGLVQAGGSLRLSCAASGSIFYWNTMGWYRQAPGKERELVAAIRRGGNTYYADSVKGRFTISRDNAKNTVYLQMNCLKPEDTAVYYCNRDGTYVYHGGEYWGQGTQVTVSS | low polyreactivity |
| QVQLVESGGGLVQAGGSLRLSCAASGSIFYWYAMGWYRQAPGKEREFIADIDWSGGSTYYADSVKGRFTISRDNAKNTVYLQMNSLKPEDTAVYYCAAEARIDIGLYYLDSYYWGQGTQVTVSS | high polyreactivity |
| QVQLVESGGGLVQAGGSLRLSCAASGSIFYWYAMGWYRQAPGKERELVAAISSGGSTNYADSVKGRFTISRDNAKNTVYLQMNSLKPEDTAVYYCNADVPVRYGPIYFRRLDYWGQGTQVTVSS | low polyreactivity |
| QVQLVESGGGLVQAGGSLRLSCAASGSIFYWYAMGWYRQAPGKERELVAAITSSSGRTRYADSVKGRFTISRDNAKNTVYLQMNSLKPEDTAVYYCAAGRWGSYYTPRPYGYWGQGTQVTVSS | high polyreactivity |
| QVQLVESGGGLVQAGGSLRLSCAASGSIFYWYAMGWYRQEPGKERELVAAIDISDDTYYADSVKGRYTISRDNAKNTVYLLMNRLKPEDTAVYYCATDEWYLFEYPFYYWGQGSQVTVSS | high polyreactivity |
| QVQLVESGGGLVQAGGSLRLSCAASGSIFYWYTMGWYRQAPGKERELVAAISSIDGNTYYADSVKGRFTISRDNAKNTVYLQMNSLKPEDTAVYYCAAAYYNTDYYYWGQGTQVTVSS | low polyreactivity |
| QVQLVESGGGLVQAGGSLRLSCAASGSIFYYAMGWYRQAPGKERELVADISTGGSTHYADSVKGRFTISRDNAKNTVYLQMYSLKPEDTAVYYCAKEAWRYRLNFRYNYWVQGTQVTVSS | low polyreactivity |
| QVQLVESGGGLVQAGGSLRLSCAASGSIFYYNALGWYRHAPGKERELVASISNGGSTDYADSVKGRFTISRDNAKNTVYLQMNSVKPEDTAVYYCNAKQSYRSDYDYWGQGTQVTVSS | low polyreactivity |
| QVQLVESGGGLVQAGGSLRLSCAASGSIFYYNAMGWYIQAPGKERELVAAIRSTGSTNYADSVKGRFTISRDNAKNTVYLQMNSLKPEDTAVYYCNADYIFWLTLFDYWGQGTQVTVSS | low polyreactivity |
| QVQLVESGGGLVQAGGSLRLSCAASGSIFYYNAMGWYRQAPGKEREFVAAIRTRGDSTYYADSVKGRFTISRDNAKNTVYLQMNSLKPEDTAVYYCAARHYGGDGNKYYYWGHGTQVTVSS | high polyreactivity |
| QVQLVESGGGLVQAGGSLRLSCAASGSIFYYNAMGWYRQAPGKEREFVAAITISGGDTYYADSVKGRFTISRDNAKNTVYLQMNSLKPEDTAVYYCAAESYRGYDYWGQGTQVTVSS | high polyreactivity |
| QVQLVESGGGLVQAGGSLRLSCAASGSIFYYNAMGWYRQAPGKERELVAAINSNGGSTYYADSVKGRFTISRDNAKNSVYFQMNSLKPEDTAVYYCNARYPGRTQGRYYYWGHGTQVTVSS | low polyreactivity |
| QVQLVESGGGLVQAGGSLRLSCAASGSIFYYNAMGWYRQAPGKERELVAAISSSGGSTYYADSVKGRFTISRDNAKNTVYLQMNSLKPEDTAVYYCAAKLRHWAHHTKYDYWGQGTQVTVSS | low polyreactivity |
| QVQLVESGGGLVQAGGSLRLSCAASGSIFYYNAMGWYRQAPGKERELVAAISWGDGITYYADSVKGRFTISRDNAKNTVYLQMNSLKPEDTAVYYCAVDYYYLPYEYWGQGTQVTVSS | high polyreactivity |
| QVQLVESGGGLVQAGGSLRLSCAASGSIFYYNAMGWYRQAPGKERELVAGISYTGGSTYYADSVKGRFTISRDNAKNTVYLQMNSLKPEDTAVYYCAAVRQYYFRYKINTSGYQYYYWGQGTQVTVSS | high polyreactivity |

| Sequence | polyreactivity (PSR sort gate) |
| --- | --- |
| QVQLVESGGGLVQAGGSLRLSCAASGSIFYYNPMGWYRQAPWKERELVAAITGSGGSTYYADSVKGRFTISRDNAKNTVYLQMNSLKPEDTAVYYCAADYSLYGWWFRNDYWGQGTQVTVSS | low polyreactivity |
| QVQLVESGGGLVQAGGSLRLSCAASGSIFYYNTMGWYRQAPGKEREFVATITFSGSSTYYADSVKGRFTFSRDNAKNTVYLQMNSLKPEDTAVYYCAVTLEDYTYGYWGQGTQVTVSS | low polyreactivity |
| QVQLVESGGGLVQAGGSLRLSCAASGSIFYYNTMGWYRQAPGKERELVAAITSTGRTNYADSVKGRFTISRDNAKNTVYLQINSLKPVDTAVYYCAKRRFGDGDYWGQGTQVTVSS | low polyreactivity |
| QVQLVESGGGLVQAGGSLRLSCAASGSIFYYNVMGWYRQAPGKERELVAAISQSGVRTYYADSVKGRFTISRDNAKNTVYLQMNSLKPEDTAVYYCAAKARRLYASSYDYWGQGTQVTVSS | high polyreactivity |
| QVQLVESGGGLVQAGGSLRLSCAASGSIFYYNYMGWYRQAPGKERELVATITNGGGTNYADSVKGRFTISRDNAKNTVYLQMNSLKPEDTAVYYCARDVWSPDYLYDYWGQGTQVTVSS | low polyreactivity |
| QVQLVESGGGLVQAGGSLRLSCAASGSIFYYYAMGWYRQAPGKERELVAAIDSGGSTYYADSVKGRFTISRDNAKNTVYLQMNSLKPEDTAVYYCAADTYWFVYYGYDYWGLGTQVTVSS | low polyreactivity |
| QVQLVESGGGLVQAGGSLRLSCAASGSIFYYYAMGWYRQAPGKERELVAAISTGGGSTYYADSVKGRFTISRDNAKNTVYLQINSLKPEDTAVYYCAAPWGYYSSFTDDYWGHGTQVTVSS | low polyreactivity |
| QVQLVESGGGLVQAGGSLRLSCAASGSIFYYYAMGWYRQAPGKERELVAAITSGGRTKYADSVKGRFTISRDNAKNTVYLQMNSLKPEDTAVYYCATRAIWAYSTGYDYWGQGTQVTVSS | high polyreactivity |
| QVQLVESGGGLVQAGGSLRLSCAASGSIFYYYAMGWYRQAPGKERELVAAITSGGSTYYADSVKGRFTISRDNAKNTVYLQMNSLKPEDTAVYYCAAVFYAAYLRYVWYSYDYWGQGTQVTVSS | low polyreactivity |
| QVQLVESGGGLVQAGGSLRLSCAASGSIFYYYAMGWYRQAPGKERELVAAITSRAGDTYYADSVKGRFTISRDNAKNTVYLQMNSLKPEDTAVYYCAADFPAYYDYYYWGQGTQVTVSS | low polyreactivity |
| QVQLVESGGGLVQAGGSLRLSCAASGSIFYYYAMGWYRQAPGKERELVASITSGGSTYYADSVKGRFTISRDNAKNTVYLQMNILKPEDTAVYYCAADVYRTWYWWFDYWGQGTQVTVSS | high polyreactivity |
| QVQLVESGGGLVQAGGSLRLSCAASGSIFYYYSMGWYRQAPGKERELVAAMSTGGGSTYYADSVKGRFTISRDNAKNTVYLQMNSLKPEDTSVYYCAAPWGYYSSFTDDYWGQGTQVTVSS | low polyreactivity |
| QVQLVESGGGLVQAGGSLRLSCAASGSIHFEYMGWYRQAPGKERELVAAITIRDGGTYYADSVKGRFTISRDNAKNTVYLQMNSLKPEDTAVYYCNADFSGGWRYDYWGQGTQVTVSS | low polyreactivity |
| QVQLVESGGGLVQAGGSLRLSCAASGSIIAAYAMGWYRQAPGKERELVAAIRWNGGSTYYADSVKGRFTISRDNAKNTVYLQMISLKPEDTAVFYCAADYIYYPVYEFGYWGQGTQVTVSS | low polyreactivity |
| QVQLVESGGGLVQAGGSLRLSCAASGSIIAGNVMGWYRQAPGKERELVAAISRRGGRTYYADSVKGRFTISRDNAKNTVYLQMNSLKPEDTAVYYCAARRDPVLGKSDFWGQGTQVTVSS | high polyreactivity |
| QVQLVESGGGLVQAGGSLRLSCAASGSIIDRYAMGWYRQAPGKERELVAAISRSGGSTYYADSVKGRFTISRDNAKNTVYLQMKSLKPEDTAFYYCAAGGDSGDDWGQGTQVTVSS | low polyreactivity |
| QVQLVESGGGLVQAGGSLRLSCAASGSIIDRYAMGWYRQAPGKERELVAAISYSGGRTYYADSVKGRFTISRDNAKNTVYLQMNSLKPEDTAVYYCAADSPYDEYDYWGQGTQVTVSS | high polyreactivity |
| QVQLVESGGGLVQAGGSLRLSCAASGSIIFLYAMGWYRQAPGKERELVASISTSGTTITYYADSVKGRFTISRDNAQNTGYLQMNSLKPEDTAVYYCAAEAYGNRDYWGQGTQVTVSS | low polyreactivity |
| QVQLVESGGGLVQAGGSLRLSCAASGSIIGFYVMGWYRQAPGKERELVAGISDSGGRTYYADSVKGRFTISRDNAKNTVYLQMNSLKPEDTAVYYCAAEAYKHGVWDYDYWGQGTQVTVSS | low polyreactivity |
| QVQLVESGGGLVQAGGSLRLSCAASGSIIGPYAMGWYRQAHGKERELVAAITFSGGSTYYADSVKGRFTISRDNSKNTVYLQMNSLKPEDTAVYYCAAEYWYYTGYDYWGQGTQVTVSS | high polyreactivity |
| QVQLVESGGGLVQAGGSLRLSCAASGSIIKRNAMGWYRQAPGKERELVASISSGDGSTNYADSVKGRFTISRDNAKNTVYLQMNSLKPEDTAVYYCNAPFWGYRTSFSYPVVQRFDYWGQGTQVTVSS | low polyreactivity |

Source: the nanobody polyreactivity screen of Harvey et al. (2022)
